Laboratory results from patent CN109021107A (JIANGSU RUONAIBO BIOLOGY MEDICAL TECH CO LTD, dated 2018).

Columns and labels:
[1] = molecular target: T1, recombinant PD-L1-His protein (human, UniProt Q9NZQ7 19-238); test: hybridoma supernatant screen, ELISA on coated PD-L1-His
T1 construct: also called 重组PD-L1-HIS蛋白; PD-L1蛋白; not shown: His tag

[2] = molecular target: T2, PD-L1 on PD-L1 overexpressing cells (human, UniProt Q9NZQ7 19-290); test: phage cell-binding ELISA on PD-L1 overexpressing cells, anti-M13-HRP
T2 construct: whole, on cells; also called PD-L1过表达细胞; PD-L1稳定过表达CHO细胞株

[3] = molecular target: T3, recombinant PD-L1-Fc protein (human, UniProt Q9NZQ7 19-238, limits assumed); test: competition ELISA, coated PD-L1-Fc, competitor biotinylated PD1 0.5ug/ml
T3 construct: also called 重组PD-L1-Fc蛋白; PD-L1重组蛋白; not shown: Fc part

[4] = molecular target: T2, PD-L1 on PD-L1 overexpressing cells; test: inhibition of biotinylated PD1 binding to PD-L1 overexpressing cells, Eu-streptavidin
[5] = molecular target: T2, PD-L1 on PD-L1 overexpressing cells; test: cell binding, PD-L1 overexpressing cells, anti-human-IgG-Eu fluorescence
[6] = molecular target: T4, recombinant human B7-1 (human, UniProt P33681 35-242, limits assumed); test: ELISA, coated recombinant protein, anti-human IgG-HRP
T4 construct: also called 人B7-1
T4 sequence (looked up): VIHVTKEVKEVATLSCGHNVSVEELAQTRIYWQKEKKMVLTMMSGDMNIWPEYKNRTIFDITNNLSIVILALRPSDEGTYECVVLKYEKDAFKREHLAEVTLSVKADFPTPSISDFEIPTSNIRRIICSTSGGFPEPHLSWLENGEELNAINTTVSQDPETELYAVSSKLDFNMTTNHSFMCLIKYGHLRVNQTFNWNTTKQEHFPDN

[7] = molecular target: T5, recombinant human B7-2 (human, UniProt P42081 24-247, limits assumed); test: as above
T5 construct: also called 人B7-2
T5 sequence (looked up): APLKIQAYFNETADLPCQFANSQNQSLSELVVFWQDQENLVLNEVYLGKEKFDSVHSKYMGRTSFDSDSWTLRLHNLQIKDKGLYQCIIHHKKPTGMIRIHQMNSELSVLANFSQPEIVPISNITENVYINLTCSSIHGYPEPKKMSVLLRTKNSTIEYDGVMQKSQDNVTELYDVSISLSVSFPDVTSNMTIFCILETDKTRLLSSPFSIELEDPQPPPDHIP

[8] = molecular target: T6, recombinant human PDL2 (human, UniProt Q9BQ51 20-220, limits assumed); test: as above
T6 construct: also called 人PDL2
T6 sequence (looked up): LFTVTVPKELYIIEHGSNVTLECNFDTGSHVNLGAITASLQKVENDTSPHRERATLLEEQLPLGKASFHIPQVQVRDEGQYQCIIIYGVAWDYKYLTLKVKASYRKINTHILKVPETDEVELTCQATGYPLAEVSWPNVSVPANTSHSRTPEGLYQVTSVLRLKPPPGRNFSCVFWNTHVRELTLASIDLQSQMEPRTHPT

[9] = molecular target: T2, PD-L1 on PD-L1 overexpressing cells; test: cell-based or functional assay
[10] = molecular target: T1, recombinant PD-L1-His protein; test: ELISA, coated PD-L1-HIS, donkey anti-human IgG-HRP
[11] = molecular target: T1, recombinant PD-L1-His protein; test: SPR, BIAcore T200, antibody captured by goat anti-human IgG on CM5 chip, 300nM PD-L1-HIS as analyte

T2 sequence (Q9NZQ7 19-290): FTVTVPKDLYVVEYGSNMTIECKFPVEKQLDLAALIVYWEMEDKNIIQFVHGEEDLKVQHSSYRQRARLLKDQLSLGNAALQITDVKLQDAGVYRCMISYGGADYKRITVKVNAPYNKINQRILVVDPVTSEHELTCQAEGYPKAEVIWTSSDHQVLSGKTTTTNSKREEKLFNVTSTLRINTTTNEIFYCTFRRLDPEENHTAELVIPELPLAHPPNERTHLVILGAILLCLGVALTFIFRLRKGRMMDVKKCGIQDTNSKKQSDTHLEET
T1 sequence (Q9NZQ7 19-238 limits assumed): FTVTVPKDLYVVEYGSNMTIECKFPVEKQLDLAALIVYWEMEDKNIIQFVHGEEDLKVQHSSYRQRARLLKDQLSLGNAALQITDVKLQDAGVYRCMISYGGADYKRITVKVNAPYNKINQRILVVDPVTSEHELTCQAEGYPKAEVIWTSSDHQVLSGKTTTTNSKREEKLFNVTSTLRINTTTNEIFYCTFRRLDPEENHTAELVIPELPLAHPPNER
T3 sequence (Q9NZQ7 19-238 limits assumed): as above

Binder	binding result [2]	IC50 [3] [µg/mL]	IC50 [4] [µg/mL]	EC50 [5] [µg/mL]	further results
murine monoclonal antibody specifically binding PD-L1 (hybridoma clone of Example 1) (antibody, V domains shown, Mouse IgG from hybridoma supernatant; also called 鼠源特异性结合PD-L1单克隆抗体; 鼠源抗体) VH: EVQLQESGPSLVQPSQTLSLTCSVTGDSFTSGYWNWIRKFPDNKLQYMGYVSYTGSTYYIPSLKSRISITRDTSKNQYFLQLNSVTSEDTATYFCAGYRDWLHGYFDYWGQGTTLTVSS VL: DIVMTQSQKFMSTSIGDRVSVTCKASQNVGTNVAWYQLKPGQSPKALIYSASYRFSGVPDRFTGSGSGTEFTLTITNVQSEDLTDYFCQQYNGYPLTFGAGTKLEVK	–	–	–	–	binding result [1]: binds
HUL01 scFv displayed on phage (scFv, also called clone1; clone2) scFv: EVQLQESGPGLVKPSQTLSLTCTVSGDSFSSGYWNWIRQHPGKGLEYIGYVSYTGSTYYIPSLKSRVTISRDTSKNQFSLKLSSVTAADTAVYYCAGYRDWLHGYFDYWGQGTTVTVSSGGGGSGGGGSGGGGSDIQMTQSPSSLSASVGDRVTITCKASQNVGTNVAWYQQKPGKAPKRLIYSASYRFSGVPSRFSGSGSGTEFTLTISSLQPEDFATYYCQQYNGYPLTFGQGTKLEIK	binds	–	–	–	–
HUL02 scFv displayed on phage (scFv, Phage clone from the library built on the HUL01 scFv template; also called clone4) scFv: EVQLQESGPGLVKPSQTLSLTCTVSGDSFSSGYWNWIRQHPGKGLEYIGYVSYTGSTYYIPSLKSRVTISRDTSKNQFSLKLSSVTAADTAVYYCAGYRDWLHGYFDYWGQGTTVTVSSGGGGSGGGGSGGGGSDIQMTQSPSSLSASVGDRVTITCKASQNVMDNVAWYQQKPGKAPKRLIYSASYRFSGVPSRFSGSGSGTEFTLTISSLQPEDFATYYCQQYNGYPLTFGQGTKLEIK	binds	–	–	–	–
HUL01 (antibody, human IgG1, kappa, N297A, V domains shown, expressed in 293C18 cells, Protein A purified; also called clone1; clone2) VH: EVQLQESGPGLVKPSQTLSLTCTVSGDSFSSGYWNWIRQHPGKGLEYIGYVSYTGSTYYIPSLKSRVTISRDTSKNQFSLKLSSVTAADTAVYYCAGYRDWLHGYFDYWGQGTTVTVSS VL: DIQMTQSPSSLSASVGDRVTITCKASQNVGTNVAWYQQKPGKAPKRLIYSASYRFSGVPSRFSGSGSGTEFTLTISSLQPEDFATYYCQQYNGYPLTFGQGTKLEIKR	–	0.117	0.228	0.13	–
HUL02 (antibody, human IgG1, kappa, N297A, V domains shown, also called clone4; PD-L1抗体HUL02) VH: EVQLQESGPGLVKPSQTLSLTCTVSGDSFSSGYWNWIRQHPGKGLEYIGYVSYTGSTYYIPSLKSRVTISRDTSKNQFSLKLSSVTAADTAVYYCAGYRDWLHGYFDYWGQGTTVTVSS VL: DIQMTQSPSSLSASVGDRVTITCKASQNVMDNVAWYQQKPGKAPKRLIYSASYRFSGVPSRFSGSGSGTEFTLTISSLQPEDFATYYCQQYNGYPLTFGQGTKLEIKR	–	0.0716	0.115	0.0695	binding result [6]: no binding (tested: 1ug/ml); binding result [7]: no binding (tested: 1ug/ml); binding result [8]: no binding (tested: 1ug/ml); 刺激T淋巴细胞IL-2分泌的EC50 (MLR, CD4+ T cells and DC) [9]: 0.062 µg/mL; EC50 [10]: 0.0206 µg/mL; Kd [11]: 0.17 nM
